{
  "source": "the supplement of paper PMC7125110",
  "parents": {"B1": {"name": "glmS ribozyme (parent)", "chain": "AUAAAAGCGCCAGAACUACAGAAAUGUAGUUGACGAGGAGGAGGUUUAUCGAAUUUUCGGCGGAUGCCUCCAAA"}},
  "note": "± gives the standard error. This sample holds only a part of the variants without activity.",
  "data": [
    {"variants_of": "B1", "assay": "self-cleavage kobs at 10000 uM GlcN6P; higher = faster cleavage; RNA array", "details": "with glucosamine-6-phosphate", "summary_of_the_method": "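E. coli RNA polymerase transcribed barcoded ribozyme variants in situ on sequenced MiSeq chips, which were tracked via a hybridised Cy3 probe at 37 °C. Tiles were imaged over ~14 h after glucosamine-6-phosphate (40 μM to 10 mM) in HEPES/KCl/Mg(OAc)2 buffer was flowed in. Normalised per-tile medians were fit to one- or two-exponential decays for kobs, and kcat and KM came from weighted Michaelis–Menten fits.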", "units": {"self-cleavage kobs at 10000 uM GlcN6P": "s⁻¹"}, "values": [
      {"variant": "C10A U31C G38U A48C", "self-cleavage kobs at 10000 uM GlcN6P": "< 1e-05"},
      {"variant": "A39C U46A U55A U57A", "self-cleavage kobs at 10000 uM GlcN6P": "< 1e-05"},
      {"variant": "G7C G9U G41A C50U C71G", "self-cleavage kobs at 10000 uM GlcN6P": "< 1e-05"},
      {"variant": "A14U U30A G40C", "self-cleavage kobs at 10000 uM GlcN6P": "5.69e-05 ± 1.4e-05"},
      {"variant": "C11A C16A G66C C70G", "self-cleavage kobs at 10000 uM GlcN6P": "6.24e-05 ± 2.5e-05"},
      {"variant": "A6C C8U A36C G37U", "self-cleavage kobs at 10000 uM GlcN6P": "< 1e-05"},
      {"variant": "G29U U46G C61G G66A", "self-cleavage kobs at 10000 uM GlcN6P": "< 1e-05"},
      {"variant": "A15C U30C A39G", "self-cleavage kobs at 10000 uM GlcN6P": "0.000286 ± 6.4e-05"},
      {"variant": "C11G U30C A42C U55G C61A G62A C71G", "self-cleavage kobs at 10000 uM GlcN6P": "< 1e-05"},
      {"variant": "A6G A14U A36G C50A", "self-cleavage kobs at 10000 uM GlcN6P": "< 1e-05"},
      {"variant": "G29U U54A C68U", "self-cleavage kobs at 10000 uM GlcN6P": "0.000427 ± 0.00018"},
      {"variant": "G32U U46A U56G", "self-cleavage kobs at 10000 uM GlcN6P": "3.85e-05 ± 1.2e-05"},
      {"variant": "U30G A33C A48C C71U", "self-cleavage kobs at 10000 uM GlcN6P": "< 1e-05"},
      {"variant": "C61U G62U C67U", "self-cleavage kobs at 10000 uM GlcN6P": "< 1e-05"},
      {"variant": "C8U U46G G66C C70G", "self-cleavage kobs at 10000 uM GlcN6P": "9.08e-05 ± 2.6e-05"},
      {"variant": "A15C G29C G59A U65A", "self-cleavage kobs at 10000 uM GlcN6P": "< 1e-05"},
      {"variant": "A14U G51A U57C", "self-cleavage kobs at 10000 uM GlcN6P": "< 1e-05"},
      {"variant": "C11U G40A A52C G62C", "self-cleavage kobs at 10000 uM GlcN6P": "< 1e-05"},
      {"variant": "U45A U46C C67G", "self-cleavage kobs at 10000 uM GlcN6P": "0.000673 ± 0.00013"},
      {"variant": "C61A U69C", "self-cleavage kobs at 10000 uM GlcN6P": "< 1e-05"},
      {"variant": "U31G U47C C61U C71U", "self-cleavage kobs at 10000 uM GlcN6P": "< 1e-05"},
      {"variant": "A15U G60U G62C", "self-cleavage kobs at 10000 uM GlcN6P": "< 1e-05"},
      {"variant": "C16G A42G C71U", "self-cleavage kobs at 10000 uM GlcN6P": "0.00126 ± 0.00039"},
      {"variant": "G38U U49C G63A", "self-cleavage kobs at 10000 uM GlcN6P": "< 1e-05"},
      {"variant": "A15U U56G C71A", "self-cleavage kobs at 10000 uM GlcN6P": "0.000528 ± 0.00016"},
      {"variant": "A12G U30G U55G", "self-cleavage kobs at 10000 uM GlcN6P": "5.43e-05 ± 1.3e-05"},
      {"variant": "C11U A36C G43U", "self-cleavage kobs at 10000 uM GlcN6P": "< 1e-05"},
      {"variant": "A20C G44U", "self-cleavage kobs at 10000 uM GlcN6P": "0.000286 ± 8.9e-05"},
      {"variant": "A15G U31C G38C G63A", "self-cleavage kobs at 10000 uM GlcN6P": "< 1e-05"},
      {"variant": "C50U G51U C70U", "self-cleavage kobs at 10000 uM GlcN6P": "< 1e-05"},
      {"variant": "G29C C50G C61G C71U", "self-cleavage kobs at 10000 uM GlcN6P": "8.93e-05 ± 2.1e-05"},
      {"variant": "C16A U31G C68U", "self-cleavage kobs at 10000 uM GlcN6P": "4.49e-05 ± 1.5e-05"},
      {"variant": "G9C C50U A64U", "self-cleavage kobs at 10000 uM GlcN6P": "< 1e-05"},
      {"variant": "A36C U54C G60U C61A G62U", "self-cleavage kobs at 10000 uM GlcN6P": "< 1e-05"},
      {"variant": "A42C G51A G63U", "self-cleavage kobs at 10000 uM GlcN6P": "< 1e-05"},
      {"variant": "U49A A53C G63U C71G", "self-cleavage kobs at 10000 uM GlcN6P": "< 1e-05"},
      {"variant": "A15C U30G C68G", "self-cleavage kobs at 10000 uM GlcN6P": "0.000435 ± 0.00015"},
      {"variant": "A15U G32U G66A", "self-cleavage kobs at 10000 uM GlcN6P": "0.000174 ± 4e-05"},
      {"variant": "G35A A52C U55C", "self-cleavage kobs at 10000 uM GlcN6P": "< 1e-05"},
      {"variant": "C34A C67G C70A", "self-cleavage kobs at 10000 uM GlcN6P": "< 1e-05"},
      {"variant": "G41U A53G C71A", "self-cleavage kobs at 10000 uM GlcN6P": "0.000206 ± 4.7e-05"},
      {"variant": "C8A G40C G59A G63A", "self-cleavage kobs at 10000 uM GlcN6P": "< 1e-05"},
      {"variant": "A15U G44U A64U", "self-cleavage kobs at 10000 uM GlcN6P": "< 1e-05"},
      {"variant": "G32C U54A C68G", "self-cleavage kobs at 10000 uM GlcN6P": "6.46e-05 ± 2e-05"},
      {"variant": "C16G G32U C58U", "self-cleavage kobs at 10000 uM GlcN6P": "0.000423 ± 0.00013"},
      {"variant": "A12U G44C A53G", "self-cleavage kobs at 10000 uM GlcN6P": "0.000245 ± 4.7e-05"},
      {"variant": "A36U U49G G63C", "self-cleavage kobs at 10000 uM GlcN6P": "< 1e-05"},
      {"variant": "U45C U54G C70A", "self-cleavage kobs at 10000 uM GlcN6P": "5.88e-05 ± 1.3e-05"},
      {"variant": "C34A A36C G60A", "self-cleavage kobs at 10000 uM GlcN6P": "< 1e-05"},
      {"variant": "C16A U45G A64G", "self-cleavage kobs at 10000 uM GlcN6P": "0.000258 ± 5.1e-05"},
      {"variant": "G37U G43U G59A", "self-cleavage kobs at 10000 uM GlcN6P": "< 1e-05"},
      {"variant": "C8A C58U U69G", "self-cleavage kobs at 10000 uM GlcN6P": "0.0005 ± 8.7e-05"},
      {"variant": "A6U C16U U45A", "self-cleavage kobs at 10000 uM GlcN6P": "0.000375 ± 6.6e-05"},
      {"variant": "G35C U47A G66U", "self-cleavage kobs at 10000 uM GlcN6P": "< 1e-05"},
      {"variant": "G43A G59C C67G", "self-cleavage kobs at 10000 uM GlcN6P": "< 1e-05"},
      {"variant": "A24C G29C", "self-cleavage kobs at 10000 uM GlcN6P": "0.00129 ± 0.00026"},
      {"variant": "A12C C16G G37A C67A C71U", "self-cleavage kobs at 10000 uM GlcN6P": "< 1e-05"},
      {"variant": "U65C U69C", "self-cleavage kobs at 10000 uM GlcN6P": "0.000106 ± 2.2e-05"},
      {"variant": "C10G G29U U55C", "self-cleavage kobs at 10000 uM GlcN6P": "< 1e-05"},
      {"variant": "A14U A15C G32A A42U A53U C70U", "self-cleavage kobs at 10000 uM GlcN6P": "< 1e-05"},
      {"variant": "C16A G29A U46C", "self-cleavage kobs at 10000 uM GlcN6P": "0.00011 ± 1.8e-05"},
      {"variant": "G29A U30C G60A", "self-cleavage kobs at 10000 uM GlcN6P": "< 1e-05"},
      {"variant": "G40A A53G C70A", "self-cleavage kobs at 10000 uM GlcN6P": "0.000157 ± 3.7e-05"},
      {"variant": "G7U G13C G32A", "self-cleavage kobs at 10000 uM GlcN6P": "< 1e-05"},
      {"variant": "A14C G32U U65G", "self-cleavage kobs at 10000 uM GlcN6P": "0.000125 ± 3e-05"},
      {"variant": "C10U A33G C68U", "self-cleavage kobs at 10000 uM GlcN6P": "< 1e-05"},
      {"variant": "A39U G51U C70A", "self-cleavage kobs at 10000 uM GlcN6P": "< 1e-05"},
      {"variant": "C16U U55G C68G", "self-cleavage kobs at 10000 uM GlcN6P": "5.93e-05 ± 1.5e-05"},
      {"variant": "C16G U46C C70U", "self-cleavage kobs at 10000 uM GlcN6P": "0.000325 ± 7.4e-05"},
      {"variant": "A15U U30G G60C", "self-cleavage kobs at 10000 uM GlcN6P": "< 1e-05"},
      {"variant": "A36G G44U A53C", "self-cleavage kobs at 10000 uM GlcN6P": "< 1e-05"},
      {"variant": "C16U U31G C70A", "self-cleavage kobs at 10000 uM GlcN6P": "8.19e-05 ± 1.7e-05"},
      {"variant": "C16G U55G C58U", "self-cleavage kobs at 10000 uM GlcN6P": "5.56e-05 ± 2.5e-05"},
      {"variant": "A14C G60U C70A", "self-cleavage kobs at 10000 uM GlcN6P": "< 1e-05"},
      {"variant": "A42U G62A U69G", "self-cleavage kobs at 10000 uM GlcN6P": "< 1e-05"},
      {"variant": "G29A U31A U45G", "self-cleavage kobs at 10000 uM GlcN6P": "0.000217 ± 4.5e-05"},
      {"variant": "G13U A39U A53U C67G", "self-cleavage kobs at 10000 uM GlcN6P": "4.97e-05 ± 1.8e-05"},
      {"variant": "A42U U65G U69G", "self-cleavage kobs at 10000 uM GlcN6P": "0.00259 ± 0.00036"},
      {"variant": "C10A G63U C71U", "self-cleavage kobs at 10000 uM GlcN6P": "< 1e-05"},
      {"variant": "A12G U54C", "self-cleavage kobs at 10000 uM GlcN6P": "0.001 ± 0.00011"},
      {"variant": "C16A U31A C70U", "self-cleavage kobs at 10000 uM GlcN6P": "0.00113 ± 0.00026"},
      {"variant": "G32U U54C C70A", "self-cleavage kobs at 10000 uM GlcN6P": "4.27e-05 ± 1.5e-05"},
      {"variant": "A52G U65G C71G", "self-cleavage kobs at 10000 uM GlcN6P": "2.3e-05 ± 1.1e-05"},
      {"variant": "C50U G59U A64U", "self-cleavage kobs at 10000 uM GlcN6P": "< 1e-05"}
    ]}
  ]
}
